# Laboratory results published in US20160208226A1, “Transaminase Biocatalysts” (COMMONWEALTH SCIENTIFIC AND INDUSTRIAL RESEARCH ORGANISATION, priority 2013, published 2016).
# B1: p7: pyruvate: ω-amino acid transaminase from Pseudomonas sp., amino acid sequence SEQ ID NO:2 (protein, listed as Pseudomonas sp.)
# chain: MGSSHHHHHHSSGLVPRGSHMTDYAKLFEQDRAHFMHPSTHAHDHASGALPGRIITGASGVRIRDHQGRELLDAFAGLYCVNIGYGRLEVADAIHEQAKQLAYYHTYVGHASEAIIELSARIIRDWAPAGMKKVYYGLSGSDANETQVKLVRYYNNVLGRPQKKKIISRQRGYHGSGIVTGSLTGLASFHQHFDLPVEGVKHTLCPHFYKAPAGMDEAAFVRHCAQELENLILAEGPDTVAAFIGEPVMGTGGIIVPPKGYWEAIQAVLAKYDVLLIADEVVCAFGRLGDKMGSQRHAMRPDLITTAKGLTSAYAPLSAVIVGEKVWDVIDSASTREGAMGHGWTYSGHPICAAAALANLDILERENITANAADVGGYLNQQLRQAFEGHPLVGEVRGDGMLAALEFMADREARTPFDAALKVGPKVSAACLERGMIARAMPHGDILGFAPPLVLSRAEADEVVGIAKAAVDAVAAEVL
# B2: p7N6: de novo peptide sequence based on p7, produced by ancestral reconstruction; SEQ ID NO:7 (protein)
# chain: MTDFDQLFEQDRAHFMHPSTHAHDHASGALPGRIITGASGIRIRDHEGRELIDAFAGLYCVNIGYGRTEVADAIYKQAKELAYYHTYVGHSTEAIIELSSRIIRDWAPAGMKKVYYGLSGSDANETQIKLVRYYNNVLGRPQKKKIISRQRGYHGSGIMTGSLTGLPSFHQHFDLPVEGIKHTVCPHWYKAPAGMDEAAFVRYCADELEKLILAEGPDTVAAFIGEPVMGTGGIIVPPKGYWEAIQAVLNKYDVLLIADEVVCAFGRLGSKMGSQRYGMRPDLITTAKGLTSAYAPLSAVIVGEKVWDVIEKASQKEGAMGHGWTYSGHPICAAAALANLDILERENLTANAADVGAYLNQRLRETFEGHPLVGEVRGDGMLAALEFMADREARTPFDPALKVGPKVSAACLEDGMIARAMPHGDILGFAPPLVLTRAEADEIVGIAKAAVDEVAGEVL
# modifications: Molecule produced by ancestral reconstruction
# B3: p4: pyruvate: ω-amino acid transaminase from Pseudomonas sp., amino acid sequence SEQ ID NO:6 (protein, listed as Pseudomonas sp.)
# chain: MTKQTSAQTQHWQALSREHHLAPFTDYKQLNEKGARIITKAEGVYLWDSEGNKILDGMAGLWCMNVGYGRKELAEVAYKQMLELPYYNLFFQTAHPPALELAKAIADIAPEGMNHVFFTGSGSESNDTVLRMVRHYWSIKGKPQKKVVIGRWNGYHGSTVAGVSLGGMKALHSQGDLPIPGIVHIAQPYWYGEGGDMSAEEFGVWAAEQLEKKILEVGEENVAAFIAEPIQGAGGVIVPPDTYWPKIREILAKYEILFIADEVICGFGRTGEWFGSQYYGNAPDLMPIAKGLTSGYIPMGGVIVRDEIVDTLNEGGEFYHGFTYSGHPVAAAVALENIRILREEKIVETVKAETAPYLQKRWQELADHPLVGEARGVGMVGALELVKNKKTRERFENGVGMLCREHCFRNGLIMRAVGDTMIISPPLVITKPEIDELITLARKCLDQTAAVALS
# Assay: Coupled dehydrogenase assays for transaminase activity of the Pseudomonas sp. proteins and ancestral reconstructions
# Assay type: biochemical
# Conditions: for pH optimum: UV absorbance at 340 nm, pH range 7.5-10; for pH optimum / activity with ω-amino acids including long chain C11 and C12: 28° C.; for activity with ω-amino acids including long chain C11 and C12: 340 nm, pH 7.5-10
# Experimental: Activity for each protein was assessed using coupled dehydrogenase assays as described previously. A typical assay comprised:
# Substrate (6.25 mM final concentration in potassium phosphate buffer)
# Co-substrate (pyruvate (0.5 mM final concentration) or α-KG (0.25 mM final concentration)
# NAD (1.25 mM final concentration)
# Dehydrogenase (1 μL from ADH-≧35 units/mL stock solution or GDH≧35 units/mg protein stock)
# Transaminase (final concentration dependent)
# Potassium phosphate buffer (100 mM)
# UV absorbance at 340 nm was recorded at 28° C. over a pH range of 7.5-10 with a range of substrates.
# Proteins encoded by p7N6, p7N15, p7N16, p7N17, p7N43 and p7N48 were expressed using an E. coli recombinant expression platform and subsequently purified.
# Each of the proteins were assayed for substrate specificity. Substrates identified by assaying for each of the proteins are summarized below.
Molecule,pH optimum,smallest substrate accepted (coupled dehydrogenase assay),activity with ω-amino acids including long chain C11 and C12 (coupled dehydrogenase assay),"activity of ancestral reconstruction proteins in the coupled assays (E. coli expressed, purified proteins)"
B1,~10,C4 (γ-aminobutyrate; GABA),"shown the desired activity with ω-amino acids, notably including long chain amino acids C11 and C12",–
B2,–,–,–,activity in accordance with p7
B3,~10,–,"shown the desired activity with ω-amino acids, notably including long chain amino acids C11 and C12",–
